For test [1], the target named is BBMV proteins (brush border membrane vesicles) from fall armyworm (FAW; Spodoptera frugiperda) larval midgut (Spodoptera frugiperda). Description: heterologous competition: unlabeled Cry1Ca against 0.5 nM 125I Cry1Da (competitor pair Cry1Da/BBMV) on FAW BBMVs; reflects no displacement at Cry1Da sites, not lack of Cry1Ca binding to BBMVs.
Test [2] shares this target. Description: homologous competition: unlabeled Cry1Da against 0.5 nM 125I Cry1Da on FAW BBMVs.

On to “Cry1Ca (purified truncated Cry toxin) (from UniProt P0A376 28-618)”, for which the IC50 in test [1] is > 1000 nM.
“Cry1Da (purified truncated Cry toxin) (from UniProt P19415 28-594)” displayed an IC50 in test [2] of 1.5 nM.

Values taken from US20130007923A1.
